Experimental data published in PMC6239434, “Angiopoietin-4-dependent venous maturation and fluid drainage in the peripheral retina” (eLife, 2018).

B1: Purified recombinant human ANGPT2 (ligand, UniProt O15123 19-496, looked up)
chain: YNNFRKSMDSIGKKQYQVQHGSCSYTFLLPEMDNCRSSSSPYVSNAVQRDAPLEYDDSVQRLQVLENIMENNTQWLMKLENYIQDNMKKEMVEIQQNAVQNQTAVMIEIGTNLLNQTAEQTRKLTDVEAQVLNQTTRLELQLLEHSLSTNKLEKQILDQTSEINKLQDKNSFLEKKVLAMEDKHIIQLQSIKEEKDQLQVLVSKQNSIIEELEKKIVTATVNNSVLQKQQHDLMETVNNLLTMMSTSNSAKDPTVAKEEQISFRDCAEVFKSGHTTNGIYTLTFPNSTEEIKAYCDMEAGGGGWTIIQRREDGSVDFQRTWKEYKVGFGNPSGEYWLGNEFVSQLTNQQRYVLKIHLKDWEGNEAYSLYEHFYLSSEELNYRIHLKGLTGTAGKISSISQPGNDFSTKDGDNDKCICKCSQMLTGGWWFDACGPSNLNGMYYPQRQNTNKFNGIKWYYWKGSGYSLKATTMMIRPADF
notes: human angiopoietin-2 (ANGPT2), purified recombinant protein from R & D Systems; Runs predominantly as disulfide-linked dimers on non-reducing SDS-PAGE; also called angiopoietin-2; source: bought: R & D Systems (purified recombinant)
B2: Purified recombinant mouse Angpt4 (ligand, UniProt Q9WVH6 22-509, looked up)
chain: QHRGPEAGGHRQIHQVRRGQCSYTFVVPEPDICQLAPTAAPEALGGSNSLQRDLPASRLHLTDWRAQRAQRAQRVSQLEKILENNTQWLLKLEQSIKVNLRSHLVQAQQDTIQNQTTTMLALGANLMNQTKAQTHKLTAVEAQVLNQTLHMKTQMLENSLSTNKLERQMLMQSRELQRLQGRNRALETRLQALEAQHQAQLNSLQEKREQLHSLLGHQTGTLANLKHNLHALSSNSSSLQQQQQQLTEFVQRLVRIVAQDQHPVSLKTPKPVFQDCAEIKRSGVNTSGVYTIYETNMTKPLKVFCDMETDGGGWTLIQHREDGSVNFQRTWEEYKEGFGNVAREHWLGNEAVHRLTSRTAYLLRVELHDWEGRQTSIQYENFQLGSERQRYSLSVNDSSSSAGRKNSLAPQGTKFSTKDMDNDNCMCKCAQMLSGGWWFDACGLSNLNGIYYSVHQHLHKINGIRWHYFRGPSYSLHGTRMMLRPMGA
notes: mouse angiopoietin-4 (Angpt4, previously named Ang3), purified recombinant protein from R & D Systems; also called angiopoietin-4; Ang3; source: bought: R & D Systems (purified recombinant)
B3: Purified recombinant human ANGPT4 (ligand, UniProt Q9Y264 25-503, looked up)
chain: TRQEADRGCETLVVQHGHCSYTFLLPKSEPCPPGPEVSRDSNTLQRESLANPLHLGKLPTQQVKQLEQALQNNTQWLKKLERAIKTILRSKLEQVQQQMAQNQTAPMLELGTSLLNQTTAQIRKLTDMEAQLLNQTSRMDAQMPETFLSTNKLENQLLLQRQKLQQLQGQNSALEKRLQALETKQQEELASILSKKAKLLNTLSRQSAALTNIERGLRGVRHNSSLLQDQQHSLRQLLVLLRHLVQERANASAPAFIMAGEQVFQDCAEIQRSGASASGVYTIQVSNATKPRKVFCDLQSSGGRWTLIQRRENGTVNFQRNWKDYKQGFGDPAGEHWLGNEVVHQLTRRAAYSLRVELQDWEGHEAYAQYEHFHLGSENQLYRLSVVGYSGSAGRQSSLVLQNTSFSTLDSDNDHCLCKCAQVMSGGWWFDACGLSNLNGVYYHAPDNKYKMDGIRWHYFKGPSYSLRASRMMIRPLDI
notes: human angiopoietin-4 (ANGPT4), purified recombinant protein from R & D Systems; Forms dimeric and higher oligomeric/multimeric complexes on non-reducing SDS-PAGE; also called angiopoietin-4; source: bought: R & D Systems (purified recombinant)
B4: Purified recombinant human ANGPT1 (ligand, UniProt Q15389 16-498, looked up)
chain: HIGCSNQRRSPENSGRRYNRIQHGQCAYTFILPEHDGNCRESTTDQYNTNALQRDAPHVEPDFSSQKLQHLEHVMENYTQWLQKLENYIVENMKSEMAQIQQNAVQNHTATMLEIGTSLLSQTAEQTRKLTDVETQVLNQTSRLEIQLLENSLSTYKLEKQLLQQTNEILKIHEKNSLLEHKILEMEGKHKEELDTLKEEKENLQGLVTRQTYIIQELEKQLNRATTNNSVLQKQQLELMDTVHNLVNLCTKEGVLLKGGKREEEKPFRDCADVYQAGFNKSGIYTIYINNMPEPKKVFCNMDVNGGGWTVIQHREDGSLDFQRGWKEYKMGFGNPSGEYWLGNEFIFAITSQRQYMLRIELMDWEGNRAYSQYDRFHIGNEKQNYRLYLKGHTGTAGKQSSLILHGADFSTKDADNDNCMCKCALMLTGGWWFDACGPSNLNGMFYTAGQNHGKLNGIKWHYFKGPSYSLRSTTMMIRPLDF
notes: human angiopoietin-1 (ANGPT1), purified recombinant protein from R & D Systems; Forms various-sized oligomers/multimers on non-reducing SDS-PAGE; also called angiopoietin-1; source: bought: R & D Systems (purified recombinant)

Experiments:
TIE2 (Homo sapiens) = TIE2 (Homo sapiens) (UniProt Q02763); details: cited from earlier work
Sequence of TIE2 (Homo sapiens) (Q02763 23-748): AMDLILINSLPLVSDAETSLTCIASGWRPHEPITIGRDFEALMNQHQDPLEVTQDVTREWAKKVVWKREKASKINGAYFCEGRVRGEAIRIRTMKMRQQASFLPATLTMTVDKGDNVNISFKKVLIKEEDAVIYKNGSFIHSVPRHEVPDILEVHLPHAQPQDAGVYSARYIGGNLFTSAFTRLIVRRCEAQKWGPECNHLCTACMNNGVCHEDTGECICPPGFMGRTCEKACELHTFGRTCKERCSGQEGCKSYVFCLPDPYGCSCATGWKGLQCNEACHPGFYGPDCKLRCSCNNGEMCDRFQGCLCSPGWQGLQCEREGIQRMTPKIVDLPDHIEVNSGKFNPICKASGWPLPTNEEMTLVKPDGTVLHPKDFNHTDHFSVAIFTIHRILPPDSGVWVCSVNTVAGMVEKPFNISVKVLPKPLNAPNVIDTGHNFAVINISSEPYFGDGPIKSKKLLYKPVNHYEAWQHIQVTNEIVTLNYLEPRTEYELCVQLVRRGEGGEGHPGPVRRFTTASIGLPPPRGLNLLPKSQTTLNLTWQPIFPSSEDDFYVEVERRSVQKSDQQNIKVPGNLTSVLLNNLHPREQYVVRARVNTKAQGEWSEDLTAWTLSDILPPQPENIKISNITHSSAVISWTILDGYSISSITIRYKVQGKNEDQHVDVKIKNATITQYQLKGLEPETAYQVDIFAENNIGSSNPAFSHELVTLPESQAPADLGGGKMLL

[1] = target: the molecule itself; test: non-reducing SDS polyacrylamide gel electrophoresis; purified recombinant angiopoietins run under non-reducing and reducing (1% 2-mercaptoethanol) conditions; oligomerization and multimerization states

Row | Molecule | binding result [1] | also measured
1 | Angiopoietin-1 (from UniProt Q15389) |  | Kd (TIE2 (Homo sapiens)): 3.7 nM
2 | B1 |  | stoichiometry N [1]: 2
3 | B2 | binds | 
4 | B3 | binds | 
5 | B4 | binds | 
